Assay results taken from PMC9772228, “Structure of a RecT/Redβ family recombinase in complex with a duplex intermediate of DNA annealing”.
Residue numbers refer to the chain shown, from its start.

Tests used:
Assay in all cases: EMSA; EMSA: PBS pH 7.4 (or KH2PO4/10 mM MgCl2 pH 6.0), 3.6 or 5 uM protein, 25 uM nt DNA, 37 C 15 min per strand, 0.8% agarose 1x TBE; cryo-EM: 20 mM KH2PO4 (Results: 10 mM), 10 mM MgCl2 pH 6.0, 37 C; native MS: 100 mM ammonium acetate pH 7, 37 C
Details in all cases: protein: recombinant, tags: N-terminal 6His vector tag (20 aa) retained, chain copies: 10
LiRecT V98W = target: T1, LiRecT V98W (Listeria innocua CLIP 11262, UniProt Q92FL9 1-271, V98W)
T1 sequence: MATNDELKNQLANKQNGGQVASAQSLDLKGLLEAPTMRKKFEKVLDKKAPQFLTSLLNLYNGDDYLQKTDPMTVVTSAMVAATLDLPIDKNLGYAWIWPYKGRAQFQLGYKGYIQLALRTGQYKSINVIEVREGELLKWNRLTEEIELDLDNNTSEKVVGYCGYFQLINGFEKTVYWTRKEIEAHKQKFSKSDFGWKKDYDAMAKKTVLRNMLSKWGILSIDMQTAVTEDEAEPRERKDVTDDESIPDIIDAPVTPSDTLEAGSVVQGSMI

LiRecT K180A = target: T2, LiRecT K180A (Listeria innocua CLIP 11262, UniProt Q92FL9 1-271, K180A)
T2 sequence: T1 sequence with W98V, K180A

LiRecT K157A = target: T3, LiRecT K157A (Listeria innocua CLIP 11262, UniProt Q92FL9 1-271, K157A)
T3 sequence: T1 sequence with W98V, K157A

LiRecT Y100E = target: T4, LiRecT Y100E (Listeria innocua CLIP 11262, UniProt Q92FL9 1-271, Y100E)
T4 sequence: T1 sequence with W98V, Y100E

LiRecT Q107A = target: T5, LiRecT Q107A (Listeria innocua CLIP 11262, UniProt Q92FL9 1-271, Q107A)
T5 sequence: T1 sequence with W98V, Q107A

[1] = label: 5'-Cy3;5'-Cy5, 49 bp, 1 nt 5' overhang at each end

Measured: binding result

CCATCCGCAAAAATCGAGCTATGCAGGGCGATTCTGCTCTAAGCCATCCG (ssDNA) [Cy5-50mer]
binds: LiRecT V98W; label: 5'-Cy5, single strand | LiRecT K180A; label: 5'-Cy5, single strand | LiRecT K157A; label: 5'-Cy5, single strand | LiRecT Y100E; label: 5'-Cy5, single strand | LiRecT Q107A; label: 5'-Cy5, single strand

B1: 50-mer duplex intermediate (sequential addition) (dsDNA)
DNA 1: GCGGATGGCTTAGAGCAGAATCGCCCTGCATAGCTCGATTTTTGCGGATG
DNA 2: CCATCCGCAAAAATCGAGCTATGCAGGGCGATTCTGCTCTAAGCCATCCG
binds: LiRecT V98W; [1] | LiRecT K180A; [1] | LiRecT K157A; [1] | LiRecT Y100E; [1] | LiRecT Q107A; [1]

GCGGATGGCTTAGAGCAGAATCGCCCTGCATAGCTCGATTTTTGCGGATG (ssDNA) [Cy3-50mer]
binds: LiRecT V98W; label: 5'-Cy3, single strand | LiRecT K180A; label: 5'-Cy3, single strand | LiRecT K157A; label: 5'-Cy3, single strand | LiRecT Y100E; label: 5'-Cy3, single strand | LiRecT Q107A; label: 5'-Cy3, single strand
